From PMC3471760

Legend:
[1] = target: CFP-N198-TRPV6 (human ('hTRPV6' in p-0012; the printed GenBank AF160798 is rat, from memory)); assay: FRET or BRET
[2] = target: YFP-TRPV6 (human ('hTRPV6' in p-0012; the printed GenBank AF160798 is rat, from memory)); assay: FRET or BRET
YFP-TRPV6 (human ('hTRPV6' in p-0012; the printed GenBank AF160798 is rat, from memory)), sequence (Q9R186 whole entry): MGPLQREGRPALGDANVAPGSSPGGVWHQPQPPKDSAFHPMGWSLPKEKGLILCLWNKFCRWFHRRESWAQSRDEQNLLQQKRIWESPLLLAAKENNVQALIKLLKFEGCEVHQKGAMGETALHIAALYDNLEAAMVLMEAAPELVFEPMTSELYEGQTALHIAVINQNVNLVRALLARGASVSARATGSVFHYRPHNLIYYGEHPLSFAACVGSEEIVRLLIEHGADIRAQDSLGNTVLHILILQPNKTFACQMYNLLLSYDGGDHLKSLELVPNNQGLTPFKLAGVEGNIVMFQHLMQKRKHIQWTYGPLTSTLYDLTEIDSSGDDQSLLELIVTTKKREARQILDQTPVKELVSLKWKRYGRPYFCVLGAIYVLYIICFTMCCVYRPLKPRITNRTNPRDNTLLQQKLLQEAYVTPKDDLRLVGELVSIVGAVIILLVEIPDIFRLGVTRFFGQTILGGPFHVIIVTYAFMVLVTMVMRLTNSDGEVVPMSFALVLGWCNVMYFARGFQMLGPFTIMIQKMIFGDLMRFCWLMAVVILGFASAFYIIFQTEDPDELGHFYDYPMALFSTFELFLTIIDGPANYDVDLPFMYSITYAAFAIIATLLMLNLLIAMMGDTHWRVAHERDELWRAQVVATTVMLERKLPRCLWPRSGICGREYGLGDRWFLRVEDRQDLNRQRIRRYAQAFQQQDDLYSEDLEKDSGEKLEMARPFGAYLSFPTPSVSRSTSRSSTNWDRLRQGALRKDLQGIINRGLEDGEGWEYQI

CFP-N198-TRPV6 (human ('hTRPV6' in p-0012; the printed GenBank AF160798 is rat, from memory)), sequence (Q9R186 whole entry): as above

An FRET [1] of 0.11 was found for “YFP-N193-TRPC1 (from UniProt P48995-2 1-193) (domain or fragment)” in this work.

An FRET [2] of 0.02 was found for “CFP-TRPC4 (from UniProt Q9QUQ5-1 1-974) (natural protein)” in this work.

An FRET [2] of 0.07 was found for “CFP-TRPC1 (from UniProt P48995-2 1-759) (natural protein)” in this work.

An FRET [2] of 0.02 was found for “CFP-TRPC5 (from UniProt Q9QX29 1-975) (natural protein)” in this work.

B1: CFP-TRPC3 (natural protein)
chain: MSTKVRKCKEQARVTFPAPEEEEDEGEDEGAEPQRRRRGWRGVNGGLEPRSAPSQREPHGYCPPPFSHGPDLSMEGSPSLRRMTVMREKGRRQAVRGPAFMFNDRGTSLTAEEERFLDAAEYGNIPVVRKMLEESKTLNVNCVDYMGQNALQLAVGNEHLEVTELLLKKENLARIGDALLLAISKGYVRIVEAILNHPGFAASKRLTLSPCEQELQDDDFYAYDEDGTRFSPDITPIILAAHCQKYEVVHMLLMKGARIERPHDYFCKCGDCMEKQRHDSFSHSRSRINAYKGLASPAYLSLSSEDPVLTALELSNELAKLANIEKEFKNDYRKLSMQCKDFVVGVLDLCRDSEEVEAILNGDLESAEPLEVHRHKASLSRVKLAIKYEVKKFVAHPNCQQQLLTIWYENLSGLREQTIAIKCLVVLVVALGLPFLAIGYWIAPCSRLGKILRSPFMKFVAHAASFIIFLGLLVFNASDRFEGITTLPNITVTDYPKQIFRVKTTQFTWTEMLIMVWVLGMMWSECKELWLEGPREYILQLWNVLDFGMLSIFIAAFTARFLAFLQATKAQQYVDSYVQESDLSEVTLPPEIQYFTYARDKWLPSDPQIISEGLYAIAVVLSFSRIAYILPANESFGPLQISLGRTVKDIFKFMVLFIMVFFAFMIGMFILYSYYLGAKVNAAFTTVEESFKTLFWSIFGLSEVTSVVLKYDHKFIENIGYVLYGIYNVTMVVVLLNMLIAMINSSYQEIEDDSDVEWKFARSKLWLSYFDDGKTLPPPFSLVPSPKSFVYFIMRIVNFPKCRRRRLQKDIEMGMGNSKSRLNLFTQSNSRVFESHSFNSILNQPTRYQQIMKRLIKRYVLKAQVDKENDEVNEGELKEIKQDISSLRYELLEDKSQATEELAILIHKLSEKLNPSMLRCE
An FRET [2] of 0.01 was found for B1 in this work.
